*1 amine or outer side, *2 acyl side, *3 side chain or, on linkers, in order; H or OH if unused. Side-chain parts run from the residue outwards. The star is where a group is joined. C18 diacid = O=C(O)CCCCCCCCCCCCCCCCC(=O)*; γGlu = O=C(O)[C@H](CCC(=O)[*:2])N[*:1]; Isovaleryl = CC(C)CC(=O)*; Ahx = NCCCCCC(=O)O
T1: human NPY2 receptor (human, UniProt P49146 1-381)
T1 construct: whole, on cells; also called hNPY2-R; hNPY2R
T1 sequence (looked up): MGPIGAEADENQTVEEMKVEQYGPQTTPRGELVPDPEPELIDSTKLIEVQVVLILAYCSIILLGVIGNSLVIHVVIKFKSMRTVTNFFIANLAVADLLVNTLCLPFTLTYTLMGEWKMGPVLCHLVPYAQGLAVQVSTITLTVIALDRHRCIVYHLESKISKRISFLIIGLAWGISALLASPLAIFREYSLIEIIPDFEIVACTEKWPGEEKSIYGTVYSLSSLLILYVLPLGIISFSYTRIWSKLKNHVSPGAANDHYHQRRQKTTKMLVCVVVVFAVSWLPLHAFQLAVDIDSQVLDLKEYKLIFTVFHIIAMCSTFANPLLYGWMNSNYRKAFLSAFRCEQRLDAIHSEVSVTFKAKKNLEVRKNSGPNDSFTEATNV

B1: Compound 59 (peptide)
peptide: Isovaleryl-APAK([Ahx-γGlu-C18 diacid])PEEDASPEELQRYYVQLRHYYNWLTRQRY-NH2
SMILES: CC(C)CC(=O)N[C@@H](C)C(=O)N1CCC[C@H]1C(=O)N[C@@H](C)C(=O)N[C@@H](CCCCNC(=O)CCCCCNC(=O)CC[C@H](NC(=O)CCCCCCCCCCCCCCCCC(=O)O)C(=O)O)C(=O)N1CCC[C@H]1C(=O)N[C@@H](CCC(=O)O)C(=O)N[C@@H](CCC(=O)O)C(=O)N[C@@H](CC(=O)O)C(=O)N[C@@H](C)C(=O)N[C@@H](CO)C(=O)N1CCC[C@H]1C(=O)N[C@@H](CCC(=O)O)C(=O)N[C@@H](CCC(=O)O)C(=O)N[C@@H](CC(C)C)C(=O)N[C@@H](CCC(N)=O)C(=O)N[C@@H](CCCNC(=N)N)C(=O)N[C@@H](Cc1ccc(O)cc1)C(=O)N[C@@H](Cc1ccc(O)cc1)C(=O)N[C@H](C(=O)N[C@@H](CCC(N)=O)C(=O)N[C@@H](CC(C)C)C(=O)N[C@@H](CCCNC(=N)N)C(=O)N[C@@H](Cc1c[nH]cn1)C(=O)N[C@@H](Cc1ccc(O)cc1)C(=O)N[C@@H](Cc1ccc(O)cc1)C(=O)N[C@@H](CC(N)=O)C(=O)N[C@@H](Cc1c[nH]c2ccccc12)C(=O)N[C@@H](CC(C)C)C(=O)N[C@H](C(=O)N[C@@H](CCCNC(=N)N)C(=O)N[C@@H](CCC(N)=O)C(=O)N[C@@H](CCCNC(=N)N)C(=O)N[C@@H](Cc1ccc(O)cc1)C(N)=O)[C@@H](C)O)C(C)C
B2: Compound 62 (peptide)
peptide: Isovaleryl-APAK([Ahx-γGlu-C18 diacid])PPEDASPEELQRYYVELRHYYNWLTRQRY-NH2
SMILES: CC(C)CC(=O)N[C@@H](C)C(=O)N1CCC[C@H]1C(=O)N[C@@H](C)C(=O)N[C@@H](CCCCNC(=O)CCCCCNC(=O)CC[C@H](NC(=O)CCCCCCCCCCCCCCCCC(=O)O)C(=O)O)C(=O)N1CCC[C@H]1C(=O)N1CCC[C@H]1C(=O)N[C@@H](CCC(=O)O)C(=O)N[C@@H](CC(=O)O)C(=O)N[C@@H](C)C(=O)N[C@@H](CO)C(=O)N1CCC[C@H]1C(=O)N[C@@H](CCC(=O)O)C(=O)N[C@@H](CCC(=O)O)C(=O)N[C@@H](CC(C)C)C(=O)N[C@@H](CCC(N)=O)C(=O)N[C@@H](CCCNC(=N)N)C(=O)N[C@@H](Cc1ccc(O)cc1)C(=O)N[C@@H](Cc1ccc(O)cc1)C(=O)N[C@H](C(=O)N[C@@H](CCC(=O)O)C(=O)N[C@@H](CC(C)C)C(=O)N[C@@H](CCCNC(=N)N)C(=O)N[C@@H](Cc1c[nH]cn1)C(=O)N[C@@H](Cc1ccc(O)cc1)C(=O)N[C@@H](Cc1ccc(O)cc1)C(=O)N[C@@H](CC(N)=O)C(=O)N[C@@H](Cc1c[nH]c2ccccc12)C(=O)N[C@@H](CC(C)C)C(=O)N[C@H](C(=O)N[C@@H](CCCNC(=N)N)C(=O)N[C@@H](CCC(N)=O)C(=O)N[C@@H](CCCNC(=N)N)C(=O)N[C@@H](Cc1ccc(O)cc1)C(N)=O)[C@@H](C)O)C(C)C
B3: Compound 66 (peptide)
peptide: Isovaleryl-APEK([Ahx-γGlu-C18 diacid])PEEDATPEELQRYYISLRHYYNWLTRQRY-NH2
SMILES: CC[C@H](C)[C@H](NC(=O)[C@H](Cc1ccc(O)cc1)NC(=O)[C@H](Cc1ccc(O)cc1)NC(=O)[C@H](CCCNC(=N)N)NC(=O)[C@H](CCC(N)=O)NC(=O)[C@H](CC(C)C)NC(=O)[C@H](CCC(=O)O)NC(=O)[C@H](CCC(=O)O)NC(=O)[C@@H]1CCCN1C(=O)[C@@H](NC(=O)[C@H](C)NC(=O)[C@H](CC(=O)O)NC(=O)[C@H](CCC(=O)O)NC(=O)[C@H](CCC(=O)O)NC(=O)[C@@H]1CCCN1C(=O)[C@H](CCCCNC(=O)CCCCCNC(=O)CC[C@H](NC(=O)CCCCCCCCCCCCCCCCC(=O)O)C(=O)O)NC(=O)[C@H](CCC(=O)O)NC(=O)[C@@H]1CCCN1C(=O)[C@H](C)NC(=O)CC(C)C)[C@@H](C)O)C(=O)N[C@@H](CO)C(=O)N[C@@H](CC(C)C)C(=O)N[C@@H](CCCNC(=N)N)C(=O)N[C@@H](Cc1c[nH]cn1)C(=O)N[C@@H](Cc1ccc(O)cc1)C(=O)N[C@@H](Cc1ccc(O)cc1)C(=O)N[C@@H](CC(N)=O)C(=O)N[C@@H](Cc1c[nH]c2ccccc12)C(=O)N[C@@H](CC(C)C)C(=O)N[C@H](C(=O)N[C@@H](CCCNC(=N)N)C(=O)N[C@@H](CCC(N)=O)C(=O)N[C@@H](CCCNC(=N)N)C(=O)N[C@@H](Cc1ccc(O)cc1)C(N)=O)[C@@H](C)O
B4: Compound 60 (peptide)
peptide: Isovaleryl-APEK([Ahx-γGlu-C18 diacid])PEEDASPEELQRYYVSLRHYYQWLTRQRY-NH2
SMILES: CC(C)CC(=O)N[C@@H](C)C(=O)N1CCC[C@H]1C(=O)N[C@@H](CCC(=O)O)C(=O)N[C@@H](CCCCNC(=O)CCCCCNC(=O)CC[C@H](NC(=O)CCCCCCCCCCCCCCCCC(=O)O)C(=O)O)C(=O)N1CCC[C@H]1C(=O)N[C@@H](CCC(=O)O)C(=O)N[C@@H](CCC(=O)O)C(=O)N[C@@H](CC(=O)O)C(=O)N[C@@H](C)C(=O)N[C@@H](CO)C(=O)N1CCC[C@H]1C(=O)N[C@@H](CCC(=O)O)C(=O)N[C@@H](CCC(=O)O)C(=O)N[C@@H](CC(C)C)C(=O)N[C@@H](CCC(N)=O)C(=O)N[C@@H](CCCNC(=N)N)C(=O)N[C@@H](Cc1ccc(O)cc1)C(=O)N[C@@H](Cc1ccc(O)cc1)C(=O)N[C@H](C(=O)N[C@@H](CO)C(=O)N[C@@H](CC(C)C)C(=O)N[C@@H](CCCNC(=N)N)C(=O)N[C@@H](Cc1c[nH]cn1)C(=O)N[C@@H](Cc1ccc(O)cc1)C(=O)N[C@@H](Cc1ccc(O)cc1)C(=O)N[C@@H](CCC(N)=O)C(=O)N[C@@H](Cc1c[nH]c2ccccc12)C(=O)N[C@@H](CC(C)C)C(=O)N[C@H](C(=O)N[C@@H](CCCNC(=N)N)C(=O)N[C@@H](CCC(N)=O)C(=O)N[C@@H](CCCNC(=N)N)C(=O)N[C@@H](Cc1ccc(O)cc1)C(N)=O)[C@@H](C)O)C(C)C
B5: Compound 61 (peptide)
peptide: Isovaleryl-APEK([Ahx-γGlu-C18 diacid])PPADASPEEIQRYYVSLRHYYNWLTRQRY-NH2
SMILES: CC[C@H](C)[C@H](NC(=O)[C@H](CCC(=O)O)NC(=O)[C@H](CCC(=O)O)NC(=O)[C@@H]1CCCN1C(=O)[C@H](CO)NC(=O)[C@H](C)NC(=O)[C@H](CC(=O)O)NC(=O)[C@H](C)NC(=O)[C@@H]1CCCN1C(=O)[C@@H]1CCCN1C(=O)[C@H](CCCCNC(=O)CCCCCNC(=O)CC[C@H](NC(=O)CCCCCCCCCCCCCCCCC(=O)O)C(=O)O)NC(=O)[C@H](CCC(=O)O)NC(=O)[C@@H]1CCCN1C(=O)[C@H](C)NC(=O)CC(C)C)C(=O)N[C@@H](CCC(N)=O)C(=O)N[C@@H](CCCNC(=N)N)C(=O)N[C@@H](Cc1ccc(O)cc1)C(=O)N[C@@H](Cc1ccc(O)cc1)C(=O)N[C@H](C(=O)N[C@@H](CO)C(=O)N[C@@H](CC(C)C)C(=O)N[C@@H](CCCNC(=N)N)C(=O)N[C@@H](Cc1c[nH]cn1)C(=O)N[C@@H](Cc1ccc(O)cc1)C(=O)N[C@@H](Cc1ccc(O)cc1)C(=O)N[C@@H](CC(N)=O)C(=O)N[C@@H](Cc1c[nH]c2ccccc12)C(=O)N[C@@H](CC(C)C)C(=O)N[C@H](C(=O)N[C@@H](CCCNC(=N)N)C(=O)N[C@@H](CCC(N)=O)C(=O)N[C@@H](CCCNC(=N)N)C(=O)N[C@@H](Cc1ccc(O)cc1)C(N)=O)[C@@H](C)O)C(C)C

Target: T1, human NPY2 receptor
Experiment: RLB: displacement of 125I-PYY(1-36) from hNPY2R membranes

In order of falling Ki:
1. B4  6.04 nM
2. B3  2.33 nM
3. B1  1.93 nM
4. B2  1.44 nM
5. B5  0.41 nM
